This is an account of results in the supplement of paper PMC10126150.

The data set concerns ATP. The data set is described as follows: switch fluorescence ratio, 500 uM ATP over buffer (Cy3 cluster intensity, sum of 5 cycles each) (fold (ratio)); higher = stronger signal-on switching upon ATP binding; sequences stand for … in TCGTCGGCAGCGTCAGATGTGTATAAGAGACAGTTTTTTTTTTTTTTTTTTTTTTTTT…TC. Particulars: aptamer strand: ATP DNA aptamer (quencher-CACCTGGGGGAGTATTGCGGAGGAAGG + anchor), 100 nM annealed; ATP concentration: 500 uM. An outline of the steps:
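Cy3-labelled switching-strand clusters on a modified Illumina MiSeq flow-cell were annealed to 100 nM quencher-labelled ATP aptamer, imaged in selection buffer, then imaged after 15 min with 500 uM ATP at 22 °C. Five buffer/ATP cycles ran, with NaOH stripping and re-annealing between them. The fluorescence ratio is summed target-cycle over summed buffer-cycle Cy3 intensity per cluster, averaged per switch-domain sequence. Clusters outside 100-1000 RFU were excluded.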

± gives the standard deviation of the averaged measurements.
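Further: ATP exposure 15 min at 22 °C before imaging.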

Consider CCGATTGTTG, for which the switch fluorescence ratio was found to be 1.02 ± 0.038. On to CGAAACGGGG, for which the switch fluorescence ratio was determined as 0.983 ± 0.042.

Turning to GGACTACCTG, the switch fluorescence ratio came out at 1.01 ± 0.022. In the case of AGTAAGGTTT, the switch fluorescence ratio turned out to be 0.985 ± 0.04. The result for TGGGTGTAGG reads 1.007 ± 0.004; that for TAAGTGGAAC, 1.002 ± 0.0063; that for GCATTTGATG, 1.0205 ± 0.00084. Regarding CGTTCTATGT, the switch fluorescence ratio worked out at 1.01 ± 0.02. The result for TCATGGGAGA reads 0.984 ± 0.04; that for AGCCATAAGG, 1.012 ± 0.0061. The result for TGATTGGGGT reads 1.01 ± 0.024; that for TTAGTGGCTT, 0.994 ± 0.035; that for GTATGGGTGT, 0.9711 ± 0.0078.

For CGCCGGGTTT, the switch fluorescence ratio worked out at 1.02 ± 0.018. The result for CCCCTGTTTT reads 1.01 ± 0.022; that for TTCGTGCAGG, 1.02 ± 0.043. In the case of GATATATTTT, the switch fluorescence ratio worked out at 0.976 ± 0.01. The result for CTTATTCGTC reads 1.04 ± 0.025. As for AGGGGGAAAT, the figure is 0.987 ± 0.035. The result for GGCATTCGTG reads 0.9743 ± 0.0049; that for CGAATAGGCT, 1.006 ± 0.0029; that for TCTTATCTGG, 0.972 ± 0.012. In the case of GGTATTAGTG, the switch fluorescence ratio was found to be 1.01 ± 0.021. As for AACGGGAGGG, the figure is 1.04 ± 0.011. As for TTTCGGGTAC, the figure is 1.2 ± 0.22; as for TCTGCTTGAG, 1.03 ± 0.022; as for AACGGGGGGA, 0.979 ± 0.033. The result for ATCGGTTGTG reads 1.01 ± 0.029; that for AAAAAATCGC, 1.09 ± 0.16. Take TCCGGGCAGG: the switch fluorescence ratio was found to be 1.14 ± 0.023. For the sequence CAGTTTATGA, the switch fluorescence ratio came out at 0.971 ± 0.039. As for AATTGGGACA, the figure is 1 ± 0.01. Take TATTGAGGAG: the switch fluorescence ratio amounted to 1.01 ± 0.011.

With TGTAATGGGT, the switch fluorescence ratio stood at 1 ± 0.029. Turning to GCGCGATATT, the switch fluorescence ratio was 2.17 ± 0.21. The result for CGTTTCTTTT reads 0.997 ± 0.02; that for CGGGGGACT, 1.61 ± 0.85.

For GACACAAAAG, the switch fluorescence ratio stood at 1.069 ± 0.0023. As for TATTTTAGAA, the figure is 0.996 ± 0.016; as for GGGGGTGACA, 0.9931 ± 0.0073; as for CTGTATCTTT, 1.02 ± 0.036.

Consider TTTTGGTCCA, for which the switch fluorescence ratio came to 0.981 ± 0.015. In the case of GTAGGTTACT, the switch fluorescence ratio turned out to be 1.01 ± 0.019. The result for AATCATTGTT reads 1.02 ± 0.026; that for TTGGCCGGAG, 1.001 ± 0.0084.

As for TAGTATTTGC, the switch fluorescence ratio amounted to 1.14 ± 0.13. As for AAGGCTATGG, the figure is 0.988 ± 0.027; as for TTATTAATT, 0.997 ± 0.028. For CGTATCATGC, the switch fluorescence ratio worked out at 0.985 ± 0.011.

Take GGGGGGCCTG: the switch fluorescence ratio turned out to be 0.982 ± 0.038.

As to AAAGTGTGCT, the switch fluorescence ratio was found to be 1.01 ± 0.024.

In the case of GTTTTATTGT, the switch fluorescence ratio was found to be 0.955 ± 0.038. As for CACTATGGTG, the figure is 1.05 ± 0.066; as for TTCCTAATTT, 1.63 ± 0.94. The result for GATTTTAGAC reads 0.995 ± 0.015; that for TCTTTTAAGT, 0.97 ± 0.033. For AAGATTATTT, the switch fluorescence ratio came out at 0.989 ± 0.074.

Take TTAGGATATA: the switch fluorescence ratio was found to be 1 ± 0.046. As for AGATTGAGAA, the figure is 0.998 ± 0.028. The result for TGGGCAGATG reads 0.989 ± 0.016; that for TCAGGGTAGG, 1.04 ± 0.033; that for CATGTAAGTT, 0.986 ± 0.018. As for TTCGGACGGT, the figure is 1.04 ± 0.06; as for GACTCGGGCG, 1.014 ± 0.0082. Consider CTTATATTTT, for which the switch fluorescence ratio was 0.997 ± 0.066. As for GCTTTGTACG, the figure is 1.042 ± 0.0014; as for TCTGGGGTGT, 1.13 ± 0.18; as for TCGAATGGGG, 0.961 ± 0.014. The result for GCGTGCGGGC reads 1.03 ± 0.043; that for AGCGGGGTCG, 1 ± 0.011. As for GAACTAAGGA, the figure is 0.9895 ± 0.0027. Consider TAGCAGTATT, for which the switch fluorescence ratio was 1.07 ± 0.065. The result for GGGTTGCGTA reads 1.006 ± 0.0027; that for GGTTGCTCGG, 0.998 ± 0.026.

Take GCTATATAGT: the switch fluorescence ratio stood at 1.01 ± 0.011.

Consider TTTTTTTCCA, for which the switch fluorescence ratio is 1.02 ± 0.013.

With ATAAAAGTCT, the switch fluorescence ratio worked out at 1.03 ± 0.032.

Take TTCAGCAGAG: the switch fluorescence ratio turned out to be 1.41 ± 0.59. The result for ATGGAAAAAG reads 0.963 ± 0.046.
